These results are taken from patent US11965039B2, “Compstatin analogues and their medical uses” (priority 2018, dated 2024).

Sequences and labels used below:
B1: Compound 18 (peptide)
peptide: Ac-ICIWQDWGRHRCT-NH2
modifications: disulfide 2-12
SMILES: CC[C@H](C)[C@H](NC(C)=O)C(=O)N[C@H]1CSSC[C@@H](C(=O)N[C@H](C(N)=O)[C@@H](C)O)NC(=O)[C@H](CCCNC(=N)N)NC(=O)[C@H](Cc2c[nH]cn2)NC(=O)[C@H](CCCNC(=N)N)NC(=O)CNC(=O)[C@H](Cc2c[nH]c3ccccc23)NC(=O)[C@H](CC(=O)O)NC(=O)[C@H](CCC(N)=O)NC(=O)[C@H](Cc2c[nH]c3ccccc23)NC(=O)[C@H]([C@@H](C)CC)NC1=O
B2: Compound 17 (peptide)
peptide: Ac-ICIWQDWGDHRCT-NH2
modifications: disulfide 2-12
SMILES: CC[C@H](C)[C@H](NC(C)=O)C(=O)N[C@H]1CSSC[C@@H](C(=O)N[C@H](C(N)=O)[C@@H](C)O)NC(=O)[C@H](CCCNC(=N)N)NC(=O)[C@H](Cc2c[nH]cn2)NC(=O)[C@H](CC(=O)O)NC(=O)CNC(=O)[C@H](Cc2c[nH]c3ccccc23)NC(=O)[C@H](CC(=O)O)NC(=O)[C@H](CCC(N)=O)NC(=O)[C@H](Cc2c[nH]c3ccccc23)NC(=O)[C@H]([C@@H](C)CC)NC1=O
B3: Compound 145 (peptide)
peptide: Ac-EFCI[Trp(1-Me)]QDWGEHRC[Sar]EA-{AEEA-AEEA-X1-NH2}
modifications: disulfide 3-13
SMILES: CC[C@H](C)[C@@H]1NC(=O)[C@@H](NC(=O)[C@H](Cc2ccccc2)NC(=O)[C@H](CCC(=O)O)NC(C)=O)CSSC[C@@H](C(=O)N(C)CC(=O)N[C@@H](CCC(=O)O)C(=O)N[C@@H](C)C(=O)NCCOCCOCC(=O)NCCOCCOCC(=O)N[C@@H](CCCCNC(=O)CC[C@H](NC(=O)CNC(=O)CC[C@H](NC(=O)CCCCCCCCCCCCCCCCC(=O)O)C(=O)O)C(=O)O)C(N)=O)NC(=O)[C@H](CCCNC(=N)N)NC(=O)[C@H](Cc2c[nH]cn2)NC(=O)[C@H](CCC(=O)O)NC(=O)CNC(=O)[C@H](Cc2c[nH]c3ccccc23)NC(=O)[C@H](CC(=O)O)NC(=O)[C@H](CCC(N)=O)NC(=O)[C@H](Cc2cn(C)c3ccccc23)NC1=O
B4: Compound 144 (peptide)
peptide: Ac-SEFCI[Trp(1-Me)]QDW[Sar]EHRC[Sar]E-{AEEA-AEEA-X1-NH2}
modifications: disulfide 4-14
SMILES: CC[C@H](C)[C@@H]1NC(=O)[C@@H](NC(=O)[C@H](Cc2ccccc2)NC(=O)[C@H](CCC(=O)O)NC(=O)[C@H](CO)NC(C)=O)CSSC[C@@H](C(=O)N(C)CC(=O)N[C@@H](CCC(=O)O)C(=O)NCCOCCOCC(=O)NCCOCCOCC(=O)N[C@@H](CCCCNC(=O)CC[C@H](NC(=O)CNC(=O)CC[C@H](NC(=O)CCCCCCCCCCCCCCCCC(=O)O)C(=O)O)C(=O)O)C(N)=O)NC(=O)[C@H](CCCNC(=N)N)NC(=O)[C@H](Cc2c[nH]cn2)NC(=O)[C@H](CCC(=O)O)NC(=O)CN(C)C(=O)[C@H](Cc2c[nH]c3ccccc23)NC(=O)[C@H](CC(=O)O)NC(=O)[C@H](CCC(N)=O)NC(=O)[C@H](Cc2cn(C)c3ccccc23)NC1=O
B5: Compound 143 (peptide)
peptide: Ac-SEFCI[Trp(1-Me)]QDWGEHRC[Sar]EGE-{AEEA-AEEA-AEEA-X1-NH2}
modifications: disulfide 4-14
SMILES: CC[C@H](C)[C@@H]1NC(=O)[C@@H](NC(=O)[C@H](Cc2ccccc2)NC(=O)[C@H](CCC(=O)O)NC(=O)[C@H](CO)NC(C)=O)CSSC[C@@H](C(=O)N(C)CC(=O)N[C@@H](CCC(=O)O)C(=O)NCC(=O)N[C@@H](CCC(=O)O)C(=O)NCCOCCOCC(=O)NCCOCCOCC(=O)NCCOCCOCC(=O)N[C@@H](CCCCNC(=O)CC[C@H](NC(=O)CNC(=O)CC[C@H](NC(=O)CCCCCCCCCCCCCCCCC(=O)O)C(=O)O)C(=O)O)C(N)=O)NC(=O)[C@H](CCCNC(=N)N)NC(=O)[C@H](Cc2c[nH]cn2)NC(=O)[C@H](CCC(=O)O)NC(=O)CNC(=O)[C@H](Cc2c[nH]c3ccccc23)NC(=O)[C@H](CC(=O)O)NC(=O)[C@H](CCC(N)=O)NC(=O)[C@H](Cc2cn(C)c3ccccc23)NC1=O
B6: Compound 14 (peptide)
peptide: Ac-ESSAICIWQDWGEHRCTGAES-NH2
modifications: disulfide 6-16
SMILES: CC[C@H](C)[C@H](NC(=O)[C@H](C)NC(=O)[C@H](CO)NC(=O)[C@H](CO)NC(=O)[C@H](CCC(=O)O)NC(C)=O)C(=O)N[C@H]1CSSC[C@@H](C(=O)N[C@H](C(=O)NCC(=O)N[C@@H](C)C(=O)N[C@@H](CCC(=O)O)C(=O)N[C@@H](CO)C(N)=O)[C@@H](C)O)NC(=O)[C@H](CCCNC(=N)N)NC(=O)[C@H](Cc2c[nH]cn2)NC(=O)[C@H](CCC(=O)O)NC(=O)CNC(=O)[C@H](Cc2c[nH]c3ccccc23)NC(=O)[C@H](CC(=O)O)NC(=O)[C@H](CCC(N)=O)NC(=O)[C@H](Cc2c[nH]c3ccccc23)NC(=O)[C@H]([C@@H](C)CC)NC1=O
B7: Compound 25 (peptide)
peptide: Ac-ICIWQDWGEHRCTEA-NH2
modifications: disulfide 2-12
SMILES: CC[C@H](C)[C@H](NC(C)=O)C(=O)N[C@H]1CSSC[C@@H](C(=O)N[C@H](C(=O)N[C@@H](CCC(=O)O)C(=O)N[C@@H](C)C(N)=O)[C@@H](C)O)NC(=O)[C@H](CCCNC(=N)N)NC(=O)[C@H](Cc2c[nH]cn2)NC(=O)[C@H](CCC(=O)O)NC(=O)CNC(=O)[C@H](Cc2c[nH]c3ccccc23)NC(=O)[C@H](CC(=O)O)NC(=O)[C@H](CCC(N)=O)NC(=O)[C@H](Cc2c[nH]c3ccccc23)NC(=O)[C@H]([C@@H](C)CC)NC1=O
B8: Compound 10 (peptide)
peptide: Ac-ESSAYCIWQDWGEHRCT-NH2
modifications: disulfide 6-16
SMILES: CC[C@H](C)[C@@H]1NC(=O)[C@@H](NC(=O)[C@H](Cc2ccc(O)cc2)NC(=O)[C@H](C)NC(=O)[C@H](CO)NC(=O)[C@H](CO)NC(=O)[C@H](CCC(=O)O)NC(C)=O)CSSC[C@@H](C(=O)N[C@H](C(N)=O)[C@@H](C)O)NC(=O)[C@H](CCCNC(=N)N)NC(=O)[C@H](Cc2c[nH]cn2)NC(=O)[C@H](CCC(=O)O)NC(=O)CNC(=O)[C@H](Cc2c[nH]c3ccccc23)NC(=O)[C@H](CC(=O)O)NC(=O)[C@H](CCC(N)=O)NC(=O)[C@H](Cc2c[nH]c3ccccc23)NC1=O
B9: Compound 13 (peptide)
peptide: Ac-ICIWQDWGEHRC[Sar]-NH2
modifications: disulfide 2-12
SMILES: CC[C@H](C)[C@H](NC(C)=O)C(=O)N[C@H]1CSSC[C@@H](C(=O)N(C)CC(N)=O)NC(=O)[C@H](CCCNC(=N)N)NC(=O)[C@H](Cc2c[nH]cn2)NC(=O)[C@H](CCC(=O)O)NC(=O)CNC(=O)[C@H](Cc2c[nH]c3ccccc23)NC(=O)[C@H](CC(=O)O)NC(=O)[C@H](CCC(N)=O)NC(=O)[C@H](Cc2c[nH]c3ccccc23)NC(=O)[C@H]([C@@H](C)CC)NC1=O
B10: Compound 11 (peptide)
peptide: Ac-[Sar]CIWQDWGEHRCT-NH2
modifications: disulfide 2-12
SMILES: CC[C@H](C)[C@@H]1NC(=O)[C@@H](NC(=O)CN(C)C(C)=O)CSSC[C@@H](C(=O)N[C@H](C(N)=O)[C@@H](C)O)NC(=O)[C@H](CCCNC(=N)N)NC(=O)[C@H](Cc2c[nH]cn2)NC(=O)[C@H](CCC(=O)O)NC(=O)CNC(=O)[C@H](Cc2c[nH]c3ccccc23)NC(=O)[C@H](CC(=O)O)NC(=O)[C@H](CCC(N)=O)NC(=O)[C@H](Cc2c[nH]c3ccccc23)NC1=O
B11: Compound 16 (peptide)
peptide: Ac-ICIWQEWGEHRCT-NH2
modifications: disulfide 2-12
SMILES: CC[C@H](C)[C@H](NC(C)=O)C(=O)N[C@H]1CSSC[C@@H](C(=O)N[C@H](C(N)=O)[C@@H](C)O)NC(=O)[C@H](CCCNC(=N)N)NC(=O)[C@H](Cc2c[nH]cn2)NC(=O)[C@H](CCC(=O)O)NC(=O)CNC(=O)[C@H](Cc2c[nH]c3ccccc23)NC(=O)[C@H](CCC(=O)O)NC(=O)[C@H](CCC(N)=O)NC(=O)[C@H](Cc2c[nH]c3ccccc23)NC(=O)[C@H]([C@@H](C)CC)NC1=O
B12: Compound 22 (peptide)
peptide: Ac-ICIWQDWGEHRCE-NH2
modifications: disulfide 2-12
SMILES: CC[C@H](C)[C@H](NC(C)=O)C(=O)N[C@H]1CSSC[C@@H](C(=O)N[C@@H](CCC(=O)O)C(N)=O)NC(=O)[C@H](CCCNC(=N)N)NC(=O)[C@H](Cc2c[nH]cn2)NC(=O)[C@H](CCC(=O)O)NC(=O)CNC(=O)[C@H](Cc2c[nH]c3ccccc23)NC(=O)[C@H](CC(=O)O)NC(=O)[C@H](CCC(N)=O)NC(=O)[C@H](Cc2c[nH]c3ccccc23)NC(=O)[C@H]([C@@H](C)CC)NC1=O
B13: Compound 9 (peptide)
peptide: Ac-YCIWQDWGEHRCT-NH2
modifications: disulfide 2-12
SMILES: CC[C@H](C)[C@@H]1NC(=O)[C@@H](NC(=O)[C@H](Cc2ccc(O)cc2)NC(C)=O)CSSC[C@@H](C(=O)N[C@H](C(N)=O)[C@@H](C)O)NC(=O)[C@H](CCCNC(=N)N)NC(=O)[C@H](Cc2c[nH]cn2)NC(=O)[C@H](CCC(=O)O)NC(=O)CNC(=O)[C@H](Cc2c[nH]c3ccccc23)NC(=O)[C@H](CC(=O)O)NC(=O)[C@H](CCC(N)=O)NC(=O)[C@H](Cc2c[nH]c3ccccc23)NC1=O
B14: Compound 12 (peptide)
peptide: Ac-ICIWQDWGAHRCE-NH2
modifications: disulfide 2-12
SMILES: CC[C@H](C)[C@H](NC(C)=O)C(=O)N[C@H]1CSSC[C@@H](C(=O)N[C@@H](CCC(=O)O)C(N)=O)NC(=O)[C@H](CCCNC(=N)N)NC(=O)[C@H](Cc2c[nH]cn2)NC(=O)[C@H](C)NC(=O)CNC(=O)[C@H](Cc2c[nH]c3ccccc23)NC(=O)[C@H](CC(=O)O)NC(=O)[C@H](CCC(N)=O)NC(=O)[C@H](Cc2c[nH]c3ccccc23)NC(=O)[C@H]([C@@H](C)CC)NC1=O

Starred links: 1 amine or outer side, 2 acyl side, 3 side chain; linkers in the order of their positions; H or OH if unused. Positions of bridges follow the written chain, without caps; N, C: chain ends. Non-standard residues stand in square brackets, D forms with d. X1 = K(γGlu-G-γGlu-17-carboxy-heptadecanoyl), O=C(O)CCCCCCCCCCCCCCCCC(=O)N[C@@H](CCC(=O)NCC(=O)N[C@@H](CCC(=O)NCCCC[C@H](N[*:1])C(=O)[*:2])C(=O)O)C(=O)O; Trp(1-Me) = Cn1cc(C[C@H](N)C(=O)O)c2ccccc21; AEEA = NCCOCCOCC(=O)O; Sar = CNCC(=O)O A value given as a limit tells only on which side of the number the result lay.

The assay deals with Human C3 (Complement tech cat #A113c) (human, UniProt P01024 23-1663). Briefly: cell-based or functional assay.
Sequence of Human C3 (Complement tech cat #A113c) (P01024 23-1663 limits assumed): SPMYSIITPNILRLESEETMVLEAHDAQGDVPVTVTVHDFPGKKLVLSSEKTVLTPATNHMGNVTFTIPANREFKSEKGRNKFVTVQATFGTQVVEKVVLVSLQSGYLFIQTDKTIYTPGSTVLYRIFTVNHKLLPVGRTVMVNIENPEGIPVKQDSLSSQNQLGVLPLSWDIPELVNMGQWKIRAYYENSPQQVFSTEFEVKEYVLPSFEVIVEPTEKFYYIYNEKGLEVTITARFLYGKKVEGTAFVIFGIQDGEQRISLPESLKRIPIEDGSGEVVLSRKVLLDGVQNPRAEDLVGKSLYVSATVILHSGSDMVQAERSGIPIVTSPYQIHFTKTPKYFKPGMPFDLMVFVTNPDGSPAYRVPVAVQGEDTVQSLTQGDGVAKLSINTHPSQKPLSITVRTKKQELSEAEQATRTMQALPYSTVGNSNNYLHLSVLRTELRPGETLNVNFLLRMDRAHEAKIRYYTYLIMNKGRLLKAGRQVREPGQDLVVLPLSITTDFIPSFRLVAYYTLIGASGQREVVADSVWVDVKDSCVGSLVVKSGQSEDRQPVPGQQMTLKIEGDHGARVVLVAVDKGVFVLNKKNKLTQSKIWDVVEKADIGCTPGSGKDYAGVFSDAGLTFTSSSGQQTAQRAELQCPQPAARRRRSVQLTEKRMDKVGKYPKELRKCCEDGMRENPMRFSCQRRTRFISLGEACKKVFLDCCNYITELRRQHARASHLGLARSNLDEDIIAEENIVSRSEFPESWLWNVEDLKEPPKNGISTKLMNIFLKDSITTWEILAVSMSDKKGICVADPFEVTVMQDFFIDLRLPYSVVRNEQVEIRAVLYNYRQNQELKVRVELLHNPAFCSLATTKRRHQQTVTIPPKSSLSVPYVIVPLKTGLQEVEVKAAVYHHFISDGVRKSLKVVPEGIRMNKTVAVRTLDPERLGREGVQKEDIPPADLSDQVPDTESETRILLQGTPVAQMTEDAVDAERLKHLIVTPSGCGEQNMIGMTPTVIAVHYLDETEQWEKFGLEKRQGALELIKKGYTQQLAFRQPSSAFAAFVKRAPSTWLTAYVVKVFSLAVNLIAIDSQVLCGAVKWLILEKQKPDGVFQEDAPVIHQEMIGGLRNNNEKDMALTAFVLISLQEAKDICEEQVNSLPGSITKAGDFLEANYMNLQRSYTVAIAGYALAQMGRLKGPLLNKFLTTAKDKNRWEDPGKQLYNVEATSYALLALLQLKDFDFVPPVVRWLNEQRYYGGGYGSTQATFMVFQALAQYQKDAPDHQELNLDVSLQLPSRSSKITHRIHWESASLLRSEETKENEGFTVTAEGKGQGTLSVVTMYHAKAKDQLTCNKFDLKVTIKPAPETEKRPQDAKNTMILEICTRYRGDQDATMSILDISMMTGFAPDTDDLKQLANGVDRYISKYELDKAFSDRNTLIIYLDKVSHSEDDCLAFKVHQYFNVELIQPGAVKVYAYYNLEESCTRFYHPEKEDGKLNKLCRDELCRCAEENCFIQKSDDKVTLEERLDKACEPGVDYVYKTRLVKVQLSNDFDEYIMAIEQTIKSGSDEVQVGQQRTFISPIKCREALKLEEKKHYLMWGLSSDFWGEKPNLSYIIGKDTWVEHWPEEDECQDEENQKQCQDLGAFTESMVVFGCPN
B1: the “inhibition of hemolysis IC50” value is below 100 nM.
As to B2, the “inhibition of hemolysis IC50” value is below 100 nM.
The same measure for B3: below 100 nM; for B4: below 100 nM; for B5: below 100 nM.
As for B6, the “inhibition of hemolysis IC50” value is below 100 nM.
Turning to B7, the “inhibition of hemolysis IC50” value is below 100 nM.
The same measure for B8: below 100 nM.
With B9, the “inhibition of hemolysis IC50” value is below 100 nM.
Consider B10, for which the “inhibition of hemolysis IC50” value was below 100 nM.
In the case of B11, the “inhibition of hemolysis IC50” value is below 100 nM.
For B12, the “inhibition of hemolysis IC50” value was below 100 nM.
The same measure for B13: below 100 nM; for B14: below 100 nM.
